Results on 1 substance are retold here after patent US10144929B2, “Polypeptide inhibitors of Smad3 polypeptide activities” (Mayo Foundation for Medical Education and Research, priority 2016, dated 2018).

This test addresses T1, pSmad3 (Mus musculus, UniProt Q8BUN5).
T1 construct: endogenous in cells; host or cells: AKR-2B cells
Put plainly: Nuclear import of pSmad3 (nuclear fractions Western, immunofluorescence) in AKR-2B cells. In kind it is cell-based. Particulars: 90 minutes transduction, TGFβ 5 ng/mL 1 hour. On the procedure:
FIGS. 1A-C. SH3 domain of sorting nexin 9 (SNX9) specifically binds pSmad3 and prevents nuclear import. (A) Cartoon depicting domains in full length (FL) SNX9 and constructs used for GST pull down assays. Lysates from AKR-2B cells untreated (−) or stimulated (+) for 45 minutes with 5 ng/mL TGFβ were incubated with GST beads or the indicated fusion polypeptides immobilized on GST beads. Bound polypeptides were eluted and assessed by Western analysis for pSmad3 or pSmad2. Cell lysate reflects signal obtained from 10 μg total protein. (B) AKR-2B cells were transduced for 90 minutes with the indicated concentrations of the TAT-SNX9(SH3) fusion polypeptides. […] Quantitation of nuclear pSmads was performed with Image J software and represents the mean+/−sd of two experiments (Right). […] Quantitation of nuclear Smad3 from 30 cells in each of two experiments (Right).
FIGS. 3A-E. Inhibition of Smad3 signaling by a defined region of the SH3 domain in SNX9. […] (B) Nuclear fractions were prepared and assessed as in FIG. 1B following transduction with the indicated TAT-SNX9(SH3) fusion polypeptide (Left). Quantitation (mean+/−sd) of nuclear pSmad2 or pSmad3 from 2 experiments (Right). (C) Immunofluorescence of nuclear Smad3 was determined as in FIG. 1C from 30 cells in each of two experiments in the absence (−) or presence (+) of 5 ng/mL TGFβ and the indicated TAT-SNX9(SH3) fusion polypeptide (1.5 μM). […]

T1 sequence (Q8BUN5 whole entry): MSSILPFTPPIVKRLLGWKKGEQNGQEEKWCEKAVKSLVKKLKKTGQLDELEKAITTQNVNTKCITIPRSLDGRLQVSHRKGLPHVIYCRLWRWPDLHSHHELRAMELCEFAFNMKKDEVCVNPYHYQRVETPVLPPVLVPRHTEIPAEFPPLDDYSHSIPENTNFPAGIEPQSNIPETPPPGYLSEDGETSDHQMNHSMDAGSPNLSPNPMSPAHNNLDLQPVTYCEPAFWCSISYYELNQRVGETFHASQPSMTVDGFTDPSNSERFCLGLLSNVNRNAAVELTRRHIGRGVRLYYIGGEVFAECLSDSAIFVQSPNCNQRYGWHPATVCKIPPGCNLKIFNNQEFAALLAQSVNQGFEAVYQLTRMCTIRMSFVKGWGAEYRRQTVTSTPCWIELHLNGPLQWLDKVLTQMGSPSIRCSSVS

As to “TAT-SH3-2: TAT-SNX9(SH3) fusion polypeptide having SNX9 amino acids 21-51 (31 mer) (TVNEGEIITITNPDVGGGWLEGRNIKGERGL; left off: small tags and cut ends)”, the “nuclear import of pSmad3” value was “specifically prevented pSmad3 nuclear import”.
